Assay results reported in the supplement of paper PMC7877785.
± gives the uncertainty stated by the source.

Assay: self-splicing fitness, log relative to wild type (ln ratio); higher = more splicing; Tetrahymena group I intron in knt gene, E. coli kanamycin selection, DiMSum; sequences stand for … in CUCUCU…GGAGGGAAAAGUUAUCAGGCAUGCACCUGGUAGCUAGUCUUUAAACCAAUAGAUUGCAUCGGUUUAAAAGGCAAGACCGUCAAAUUGCGGGAAAGGGGUCAACAGCCGUUCAGUACCAAGUCUCAGGGGAAACUUUGAGAUGGCCUUGCAAAGGGUAUGGUAAUAAGCUGACGGACAUGGUCCUAACCACGCAGCCAAGUCCUAAGUCAACAGAUCUUCUGUUGAUAUGGAUGCAGUUCACAGACUAAAUGUCGGUCGGGGAAGAUGUAUUCUUCUCAUAAGAUAUAGUCGGACCUCUCCUUAAUGGGAGCUAGCGGAUGAAGUGAUGCAACACUGGAGCCGCUGGGAACUAAUUUGUAUGCGAAAGUAUAUUGAUUAGUUUUGGAGUACUCGUGGUCG
Procedure, shortened: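 Six replicate transformations of E. coli BL21(DE3) with a pET-22b(+) library were grown overnight at 37°C or 30°C. The library randomised all eight P1ex-region intron nucleotides, the intron lying in the knt kanamycin-resistance gene, and plates were LB agar with or without 25 μg/mL kanamycin plus 100 μg/mL carbenicillin, 50 μM IPTG and 0.2% rhamnose. Pooled colonies were amplicon-sequenced on an Illumina HiSeq 2500, and fitness is the DiMSum error-weighted combination of wild-type-normalised replicate fold changes, kanamycin versus none.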

Row | Sequence | self-splicing fitness (ln) (30 °C) | self-splicing fitness (ln) (37 °C)
1 | AAUCAGCAAUAUUACGAAGC | -0.428 ± 0.11 | -0.998 ± 0.14
2 | ACAAAGCAAUAUUACGGGCU | -1.07 ± 0.055 | -0.972 ± 0.088
3 | UGAAAGCAAUAUUACGAAUG | -0.602 ± 0.066 | -0.0842 ± 0.078
4 | ACCGAGCAAUAUUACGGCAG | -4.4 ± 0.39 | 
5 | UCCAAGCAAUAUUACGACGG | -0.354 ± 0.076 | 0.164 ± 0.1
6 | AAUAAGCAAUAUUACGUUGU | -3.22 ± 0.14 | -2.51 ± 0.19
7 | CACAAGCAAUAUUACGAGGC | -3.54 ± 0.16 | -2.87 ± 0.19
8 | CUUUAGCAAUAUUACGCUUG | -2.98 ± 0.16 | -2.32 ± 0.17
9 | GUUGAGCAAUAUUACGUGCA | -1.65 ± 0.45 | -0.908 ± 0.28
10 | GCUCAGCAAUAUUACGGACG | -1.11 ± 0.079 | -0.474 ± 0.11
11 | CAUUAGCAAUAUUACGAGGA | -2.75 ± 0.35 | 
12 | ACAUAGCAAUAUUACGGAAC | -3.66 ± 0.24 | -2 ± 0.27
13 | CAGAAGCAAUAUUACGGUAA | -3.62 ± 0.25 | -2.49 ± 0.18
14 | UUACAGCAAUAUUACGCCCA | -1.62 ± 0.32 | -0.254 ± 0.3
15 | AAUGAGCAAUAUUACGCUAA | -3.1 ± 0.36 | -1.9 ± 0.2
16 | CAUUAGCAAUAUUACGCAUU | -3.32 ± 0.15 | -1.62 ± 0.094
17 | CAUUAGCAAUAUUACGAGUC |  | -1.48 ± 0.37
18 | CGGAAGCAAUAUUACGGCUU | -3.34 ± 0.3 | -2.75 ± 0.36
19 | AGGAAGCAAUAUUACGCAUA | -2.39 ± 0.18 | -1.15 ± 0.16
20 | CAGAAGCAAUAUUACGGCCU | -1.29 ± 0.13 | -1.82 ± 0.23
21 | CGUUAGCAAUAUUACGCCUC | -3.03 ± 0.49 | -2.48 ± 0.32
22 | GGUAAGCAAUAUUACGUUAG | -3.15 ± 0.18 | -1.72 ± 0.19
23 | AAGUAGCAAUAUUACGGUCG | -2.14 ± 0.13 | -1.03 ± 0.12
24 | UUGCAGCAAUAUUACGAUGC | -3.16 ± 0.46 | -1.54 ± 0.45
25 | GUGUAGCAAUAUUACGAAAA | -2.71 ± 0.4 | -1.51 ± 0.29
26 | CCCCAGCAAUAUUACGCAAU | -2.96 ± 0.12 | -1.34 ± 0.12

Row | Sequence | self-splicing fitness (ln) (30 °C) | self-splicing fitness (ln) (37 °C)
27 | CAGUAGCAAUAUUACGGGGC | -2.54 ± 0.15 | -2.55 ± 0.23
28 | CGAUAGCAAUAUUACGUACU | -1.12 ± 0.081 | -0.791 ± 0.12
29 | CUUUAGCAAUAUUACGAAGG | -1.23 ± 0.11 | -1.85 ± 0.21
30 | AUAUAGCAAUAUUACGAAGU | -3.37 ± 0.3 | -1.63 ± 0.36
31 | CAAGAGCAAUAUUACGGCGG | -0.86 ± 0.069 | -0.283 ± 0.094
32 | UUUGAGCAAUAUUACGUAGG | -2.52 ± 0.16 | -1.32 ± 0.23
33 | CUUCAGCAAUAUUACGCACC | -3.9 ± 0.47 | -2.61 ± 0.35
34 | UAAAAGCAAUAUUACGUUCA | -0.437 ± 0.083 | -0.259 ± 0.091
35 | AAAAAGCAAUAUUACGAAAG | -2.31 ± 0.098 | -1.03 ± 0.12
36 | CGCAAGCAAUAUUACGUAAC | -3.76 ± 0.23 | -2.31 ± 0.19
37 | UGUCAGCAAUAUUACGGGAC | -4.31 ± 0.23 | -2.93 ± 0.34
38 | UGUCAGCAAUAUUACGAGAG | -3.21 ± 0.23 | -2.58 ± 0.2
39 | AGUGAGCAAUAUUACGUCAG | -3 ± 0.21 | -2.56 ± 0.23
40 | GGGCAGCAAUAUUACGCUGU | -2.65 ± 0.29 | -1.21 ± 0.21
41 | CAACAGCAAUAUUACGCCAC | -3.26 ± 0.37 | -2.39 ± 0.31
42 | CCAAAGCAAUAUUACGGUCU | -3.75 ± 0.16 | -3.15 ± 0.19
43 | CAUCAGCAAUAUUACGGUAU | -2.95 ± 0.13 | -1.13 ± 0.14
44 | GCUAAGCAAUAUUACGGAAU | -1.68 ± 0.12 | -0.857 ± 0.13
45 | GACGAGCAAUAUUACGGUAC | -1.99 ± 0.39 | -1.98 ± 0.34
46 | CCGAAGCAAUAUUACGCUGG | -2.83 ± 0.22 | -3.49 ± 0.35
47 | AUUUAGCAAUAUUACGCGGG | -2.72 ± 0.19 | -1.96 ± 0.16
48 | GUCGAGCAAUAUUACGGUGA | -2.64 ± 0.15 | -1.91 ± 0.2
49 | UUGCAGCAAUAUUACGGGGA | -1.37 ± 0.13 | -0.636 ± 0.12
50 | UGUAAGCAAUAUUACGAUUA | -0.52 ± 0.076 | 0.447 ± 0.089
51 | AAACAGCAAUAUUACGGAAU | -3.81 ± 0.16 | -2.4 ± 0.14
52 | AAACAGCAAUAUUACGAGCU | -1.25 ± 0.068 | -0.704 ± 0.086

Row | Sequence | self-splicing fitness (ln) (30 °C) | self-splicing fitness (ln) (37 °C)
53 | AUAAAGCAAUAUUACGUCAG | -1.6 ± 0.12 | -0.647 ± 0.12
54 | CCGCAGCAAUAUUACGGUCU | -4.37 ± 0.2 | -3.65 ± 0.23
55 | ACGGAGCAAUAUUACGGGGA | -1.07 ± 0.24 | -3.6 ± 0.42
56 | UCCCAGCAAUAUUACGUAUG | -3.3 ± 0.16 | -2.2 ± 0.16
57 | UUCCAGCAAUAUUACGAGAC | -2.82 ± 0.27 | -1.79 ± 0.32
58 | UCUCAGCAAUAUUACGUCGA | -2.07 ± 0.11 | -0.925 ± 0.12
59 | CGUAAGCAAUAUUACGAUUA | -2.03 ± 0.23 | -1.64 ± 0.32
60 | UCUCAGCAAUAUUACGAGGU |  | -1.53 ± 0.25
61 | CCGCAGCAAUAUUACGGGUU | -3.79 ± 0.11 | -2.74 ± 0.11
62 | UUAAAGCAAUAUUACGAAGU | -3.67 ± 0.44 | -2.47 ± 0.39
63 | CAGUAGCAAUAUUACGGGAC | -4.57 ± 0.28 | -3.56 ± 0.2
64 | CCUAAGCAAUAUUACGUUAG | -1.95 ± 0.11 | -2.03 ± 0.11
65 | CCACAGCAAUAUUACGUCGC | -3.63 ± 0.17 | -3.36 ± 0.22
66 | UGAAAGCAAUAUUACGGCGU | -1.12 ± 0.095 | 0.0159 ± 0.11
67 | CUGGAGCAAUAUUACGGAAU |  | -2.05 ± 0.36
68 | CCUUAGCAAUAUUACGUGUA | -4.28 ± 0.43 | -1.47 ± 0.15
69 | UGUCAGCAAUAUUACGAAUU | -0.864 ± 0.13 | -1.04 ± 0.13
70 | AAGGAGCAAUAUUACGCGCU | -3.5 ± 0.44 | -1.5 ± 0.4
71 | AGUGAGCAAUAUUACGCUGG |  | -2.84 ± 0.41
72 | GCUUAGCAAUAUUACGAUAA | -2.12 ± 0.13 | -1.69 ± 0.12
73 | ACUGAGCAAUAUUACGGUCA | -3.09 ± 0.21 | -1.51 ± 0.15
74 | UCGGAGCAAUAUUACGCAUG | -3.6 ± 0.22 | -1.38 ± 0.17
75 | UACUAGCAAUAUUACGAAAC |  | -2.1 ± 0.32
76 | CAUUAGCAAUAUUACGGAAC |  | -0.879 ± 0.24
77 | UGCUAGCAAUAUUACGGCAG | -2.52 ± 0.12 | -1.1 ± 0.13
